Data: the supplement of paper PMC10065799, “High-throughput profiling of sequence recognition by tyrosine kinases and SH2 domains using bacterial peptide display” (eLife, 2023)

Key:
SHP2-C SH2 = test: SH2 binding enrichment of the phosphorylated peptide, bacterial display (enrichment ratio); higher = better substrate or ligand; peptides without Tyr show the background
Grb2 SH2 = Grb2 SH2 (UniProt P62993); test: as above
c-Src SH2 = test: as above
EPHB1 = EPHB1 (UniProt P54762); test: phosphorylation enrichment, bacterial display (enrichment ratio); higher = better substrate or ligand; peptides without Tyr show the background
c-Src = test: as above
EPHB2 = EPHB2 (UniProt P29323); test: as above
Jak2 = Jak2 (UniProt O60674); test: as above
AncSZ = test: as above
FGFR1 = FGFR1 (UniProt P11362); test: as above
FGFR3 = FGFR3 (UniProt P22607); test: as above
Fyn = Fyn (UniProt P06241); test: as above
Fer (mouse) = test: as above
Hck = Hck (UniProt P08631); test: as above
c-Abl (mouse) = test: as above
Fes = Fes (UniProt P07332); test: as above
MERTK = MERTK (UniProt Q12866); test: as above
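Wherever SH2 binding enrichment of the phosphorylated peptide, bacterial display is given: peptide library displayed on the E. coli surface as eCPX fusions, selected cells deep-sequenced, score is each peptide's frequency after selection divided by its frequency in the input.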
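Wherever phosphorylation enrichment, bacterial display is given: 11-residue human phosphosite peptides and single-mutation variants displayed on the E. coli surface, counted by deep sequencing, each peptide's frequency after selection divided by its frequency in the unselected input library; frequency after pTyr selection over input frequency; kinase dosed for 20-30% of maximal phosphorylation in three min.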

Chain of MERTK (Q12866 whole entry, looked up, the tested form may be a part): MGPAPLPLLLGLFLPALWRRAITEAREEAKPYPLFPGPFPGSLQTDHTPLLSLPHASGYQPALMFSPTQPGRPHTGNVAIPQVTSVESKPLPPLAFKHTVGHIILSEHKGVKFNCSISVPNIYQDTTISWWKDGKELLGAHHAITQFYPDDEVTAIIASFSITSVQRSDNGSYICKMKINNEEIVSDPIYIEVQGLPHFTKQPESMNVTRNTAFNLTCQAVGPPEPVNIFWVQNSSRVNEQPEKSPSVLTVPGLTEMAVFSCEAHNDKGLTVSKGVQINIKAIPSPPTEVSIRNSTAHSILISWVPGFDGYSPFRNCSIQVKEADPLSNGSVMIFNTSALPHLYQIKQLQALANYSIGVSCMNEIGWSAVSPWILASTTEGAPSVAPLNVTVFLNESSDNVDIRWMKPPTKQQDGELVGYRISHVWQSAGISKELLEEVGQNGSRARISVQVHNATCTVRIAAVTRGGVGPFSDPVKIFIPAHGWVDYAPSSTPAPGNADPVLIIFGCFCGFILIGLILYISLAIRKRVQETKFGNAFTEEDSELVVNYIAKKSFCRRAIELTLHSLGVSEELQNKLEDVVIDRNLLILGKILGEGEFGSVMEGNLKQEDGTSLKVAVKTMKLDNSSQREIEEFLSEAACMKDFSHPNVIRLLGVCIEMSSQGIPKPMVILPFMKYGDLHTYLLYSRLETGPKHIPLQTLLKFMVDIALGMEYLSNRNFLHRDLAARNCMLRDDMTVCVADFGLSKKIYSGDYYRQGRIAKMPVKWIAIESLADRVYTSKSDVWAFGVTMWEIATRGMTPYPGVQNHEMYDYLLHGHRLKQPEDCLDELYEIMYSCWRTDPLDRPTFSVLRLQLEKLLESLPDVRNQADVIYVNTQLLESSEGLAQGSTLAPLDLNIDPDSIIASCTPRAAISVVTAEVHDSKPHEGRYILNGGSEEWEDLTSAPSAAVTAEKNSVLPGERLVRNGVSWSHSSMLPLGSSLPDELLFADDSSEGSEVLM
Chain of EPHB2 (P29323 whole entry, looked up): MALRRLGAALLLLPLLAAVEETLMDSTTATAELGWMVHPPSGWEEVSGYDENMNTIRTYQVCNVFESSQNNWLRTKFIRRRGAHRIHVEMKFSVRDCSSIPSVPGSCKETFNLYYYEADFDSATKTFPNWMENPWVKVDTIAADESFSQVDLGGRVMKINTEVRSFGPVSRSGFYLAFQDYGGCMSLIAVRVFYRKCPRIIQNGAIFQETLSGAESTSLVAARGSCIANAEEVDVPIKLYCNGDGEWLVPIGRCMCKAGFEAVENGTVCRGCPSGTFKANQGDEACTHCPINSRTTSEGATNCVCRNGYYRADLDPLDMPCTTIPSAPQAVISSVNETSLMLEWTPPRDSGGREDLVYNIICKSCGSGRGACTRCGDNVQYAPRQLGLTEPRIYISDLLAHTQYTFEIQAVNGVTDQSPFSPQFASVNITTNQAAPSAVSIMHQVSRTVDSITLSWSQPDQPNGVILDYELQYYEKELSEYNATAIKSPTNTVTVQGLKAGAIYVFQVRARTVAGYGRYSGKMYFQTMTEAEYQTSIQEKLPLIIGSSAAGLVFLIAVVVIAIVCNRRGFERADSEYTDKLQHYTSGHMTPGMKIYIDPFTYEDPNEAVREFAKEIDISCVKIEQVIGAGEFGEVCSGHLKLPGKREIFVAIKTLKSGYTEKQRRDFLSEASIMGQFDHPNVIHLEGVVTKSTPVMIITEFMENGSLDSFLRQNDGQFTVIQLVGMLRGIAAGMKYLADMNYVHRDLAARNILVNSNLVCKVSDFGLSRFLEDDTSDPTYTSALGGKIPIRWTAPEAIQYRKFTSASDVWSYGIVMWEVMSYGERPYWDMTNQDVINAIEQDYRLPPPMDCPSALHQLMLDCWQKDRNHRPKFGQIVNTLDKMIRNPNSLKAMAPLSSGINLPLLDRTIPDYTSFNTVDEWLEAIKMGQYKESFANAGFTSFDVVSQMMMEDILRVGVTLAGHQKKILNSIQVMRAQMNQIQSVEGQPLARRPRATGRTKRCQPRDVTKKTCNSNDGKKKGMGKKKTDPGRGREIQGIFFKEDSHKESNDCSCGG
Chain of FGFR3 (P22607 whole entry, looked up): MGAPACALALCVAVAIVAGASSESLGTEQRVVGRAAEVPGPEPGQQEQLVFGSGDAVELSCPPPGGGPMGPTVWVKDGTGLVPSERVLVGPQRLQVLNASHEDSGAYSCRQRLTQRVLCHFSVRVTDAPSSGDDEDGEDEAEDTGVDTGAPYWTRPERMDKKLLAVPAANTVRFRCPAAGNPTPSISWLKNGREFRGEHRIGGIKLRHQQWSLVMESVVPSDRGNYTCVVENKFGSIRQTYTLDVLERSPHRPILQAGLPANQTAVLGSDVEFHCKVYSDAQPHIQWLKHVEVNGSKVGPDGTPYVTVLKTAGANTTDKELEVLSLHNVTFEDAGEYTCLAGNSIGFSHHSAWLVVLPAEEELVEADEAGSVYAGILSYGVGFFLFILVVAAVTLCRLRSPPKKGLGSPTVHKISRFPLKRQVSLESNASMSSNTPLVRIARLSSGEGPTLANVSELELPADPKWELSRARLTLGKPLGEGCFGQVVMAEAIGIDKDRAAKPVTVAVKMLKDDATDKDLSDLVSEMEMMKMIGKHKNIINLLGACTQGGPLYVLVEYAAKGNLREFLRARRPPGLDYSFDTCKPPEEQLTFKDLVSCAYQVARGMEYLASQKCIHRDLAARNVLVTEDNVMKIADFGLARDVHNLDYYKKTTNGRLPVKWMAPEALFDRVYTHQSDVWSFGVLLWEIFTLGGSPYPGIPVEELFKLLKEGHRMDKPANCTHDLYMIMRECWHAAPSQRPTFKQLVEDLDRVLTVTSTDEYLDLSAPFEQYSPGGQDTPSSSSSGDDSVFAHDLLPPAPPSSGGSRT
Chain of Hck (P08631 whole entry, looked up): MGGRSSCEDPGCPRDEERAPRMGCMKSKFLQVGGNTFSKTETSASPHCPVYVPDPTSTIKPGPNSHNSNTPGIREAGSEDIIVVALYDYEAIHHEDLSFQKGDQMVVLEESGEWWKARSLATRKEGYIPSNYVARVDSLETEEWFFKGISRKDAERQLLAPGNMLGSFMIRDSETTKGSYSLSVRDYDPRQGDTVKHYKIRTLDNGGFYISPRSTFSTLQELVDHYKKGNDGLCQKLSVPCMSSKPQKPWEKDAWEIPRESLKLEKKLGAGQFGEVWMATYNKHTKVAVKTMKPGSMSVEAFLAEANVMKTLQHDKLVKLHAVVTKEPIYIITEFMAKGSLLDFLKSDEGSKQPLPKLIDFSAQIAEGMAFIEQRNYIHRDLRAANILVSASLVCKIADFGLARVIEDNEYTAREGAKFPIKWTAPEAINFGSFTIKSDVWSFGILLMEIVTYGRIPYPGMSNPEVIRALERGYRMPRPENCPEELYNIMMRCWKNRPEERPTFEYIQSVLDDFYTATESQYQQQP
Chain of Fyn (P06241 whole entry, looked up): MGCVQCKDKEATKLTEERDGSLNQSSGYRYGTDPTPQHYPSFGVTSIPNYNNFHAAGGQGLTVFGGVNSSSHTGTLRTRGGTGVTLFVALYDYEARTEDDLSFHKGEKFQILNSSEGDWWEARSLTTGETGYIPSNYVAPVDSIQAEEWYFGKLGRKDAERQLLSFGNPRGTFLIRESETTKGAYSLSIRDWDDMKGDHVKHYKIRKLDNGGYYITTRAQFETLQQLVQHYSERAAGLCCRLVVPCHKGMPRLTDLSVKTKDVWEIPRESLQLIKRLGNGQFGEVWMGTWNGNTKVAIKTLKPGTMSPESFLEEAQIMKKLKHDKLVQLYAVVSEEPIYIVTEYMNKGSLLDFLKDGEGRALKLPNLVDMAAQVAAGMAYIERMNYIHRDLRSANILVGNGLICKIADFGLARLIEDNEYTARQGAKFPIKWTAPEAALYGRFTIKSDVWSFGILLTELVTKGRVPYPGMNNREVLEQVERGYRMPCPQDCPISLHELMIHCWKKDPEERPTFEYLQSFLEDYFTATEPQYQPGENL
Chain of Fes (P07332 whole entry, looked up): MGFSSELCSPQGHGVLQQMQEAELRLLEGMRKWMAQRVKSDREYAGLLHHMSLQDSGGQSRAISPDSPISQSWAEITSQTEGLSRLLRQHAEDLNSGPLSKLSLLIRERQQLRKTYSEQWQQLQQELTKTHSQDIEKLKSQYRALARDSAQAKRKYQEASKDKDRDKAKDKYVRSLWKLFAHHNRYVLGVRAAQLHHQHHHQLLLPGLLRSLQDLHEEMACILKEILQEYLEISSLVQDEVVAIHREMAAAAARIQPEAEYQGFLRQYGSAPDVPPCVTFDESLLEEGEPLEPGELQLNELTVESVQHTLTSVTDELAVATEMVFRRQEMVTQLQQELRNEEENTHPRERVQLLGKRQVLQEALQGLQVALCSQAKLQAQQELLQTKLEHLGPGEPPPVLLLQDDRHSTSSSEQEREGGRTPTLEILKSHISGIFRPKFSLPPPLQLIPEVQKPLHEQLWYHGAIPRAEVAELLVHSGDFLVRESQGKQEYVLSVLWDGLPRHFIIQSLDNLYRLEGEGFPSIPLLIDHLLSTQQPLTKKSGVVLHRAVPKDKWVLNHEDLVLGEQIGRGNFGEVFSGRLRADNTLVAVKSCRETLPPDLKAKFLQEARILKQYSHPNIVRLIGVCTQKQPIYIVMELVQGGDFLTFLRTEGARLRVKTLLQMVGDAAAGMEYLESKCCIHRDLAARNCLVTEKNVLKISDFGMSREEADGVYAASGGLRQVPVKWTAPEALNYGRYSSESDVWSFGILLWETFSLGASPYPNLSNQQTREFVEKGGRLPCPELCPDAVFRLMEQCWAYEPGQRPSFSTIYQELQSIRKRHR

SH2 binding enrichment (SHP2-C SH2)	SH2 binding enrichment (Grb2 SH2)	SH2 binding enrichment (c-Src SH2)	Sequence	phosphorylation enrichment (EPHB1)	phosphorylation enrichment (c-Src)	phosphorylation enrichment (EPHB2)	phosphorylation enrichment (Jak2)	phosphorylation enrichment (AncSZ)	phosphorylation enrichment (FGFR1)	phosphorylation enrichment (FGFR3)	phosphorylation enrichment (Fyn)	phosphorylation enrichment (Fer (mouse))	phosphorylation enrichment (Hck)	phosphorylation enrichment (c-Abl (mouse))	phosphorylation enrichment (Fes)	phosphorylation enrichment (MERTK)
0.835	0.836	0.611	IRKDLYSNNVL [ACTC1_Y296_A297S]	0.497	0.322	0.476	0.471	0.506	0.425	0.422	0.415	0.414	0.419	0.444	0.553	0.518
0.588	0.749	0.47	IRRSSYEDSSL [HNF4A_Y144_T139I]	0.444	0.591	0.543	0.65	0.705	0.411	0.487	0.481	0.526	0.53	0.824	0.758	0.485
0.715	0.958	0.533	ISGGGYRACPA [FGB_Y71_R74C]	0.51	0.361	0.404	0.61	0.915	0.469	0.52	0.44	0.495	0.432	0.58	0.818	0.409
3.41	1.47	1.1	ISHVAYLVLGK [TRRAP_Y892_R893L]	0.805	0.454	0.5	0.996	0.95	0.535	0.75	0.507	0.505	0.485	0.588	1.07	0.53
0.781	0.822	0.689	ISKTWYSAEQF [CD207_Y217_P213S]	1.84	0.522	1.8	0.604	0.793	0.605	0.757	0.532	0.521	0.481	0.585	0.837	7.68
0.68	0.88	0.564	IVEELYAIPPD [PEAK1_Y797_S792I]	4.29	3.23	13.3	1.27	3.84	6.62	6.02	3.48	6.14	4.27	10	1.26	8.66
1.95	1.25	0.823	IVKAYYVHARA [AIPL1_Y268_R270H]	0.567	0.432	0.533	0.818	0.857	0.538	0.633	0.424	0.574	0.595	0.663	0.978	0.572
0.993	0.985	1.09	IVRSLYEDQED [VHL_Y185_L188Q]	0.67	0.59	0.621	1.3	1.39	0.67	0.742	0.477	0.523	0.581	0.826	1.36	0.482
2.29	0.979	0.726	IYLGAYDRFLP [SLC22A5_Y486_V481I]	2.18	5.43	4.21	1.16	1.72	0.918	0.94	5	2.42	6.82	2.56	1.18	6.6
0.987	0.86	0.564	KAIMTYVSSFY [ACTN4_Y260]	0.644	0.612	0.666	1.04	0.976	0.489	0.719	0.536	0.505	0.554	0.755	1.05	0.424
0.625	0.683	0.404	KANEYYPVVLI [ADAMTS18_Y765]	3.64	0.655	3.11	2.79	1.97	11.2	9.02	0.572	2.12	0.693	1.6	0.813	0.541
0.84	0.888	0.489	KATKGYLDDPT [G6PD_Y322_E317K]	0.431	0.395	0.603	0.755	0.73	0.529	0.484	0.405	0.329	0.417	0.451	0.639	0.443
0.719	0.746	0.488	KAWTIYRPEDS [ZBP1_Y165]	0.461	0.566	0.512	1.17	1.41	0.539	0.643	0.494	0.449	0.482	0.757	1.15	0.478
0.767	1.4	0.83	KDAGDYKCKAK [LRIT3_Y326]	0.408	0.384	0.312	0.579	0.542	0.448	0.517	0.386	0.312	0.55	0.654	0.618	0.332
